Test results from patent publication US20240247080A1, “GLP1/GIP/NPY2 RECEPTOR TRIPLE AGONISTS” (Boehringer Ingelheim International GmbH, priority 2022, published 2024).
Substitutions are numbered along the chain they refer to. Starred links: 1 amine or outer side, 2 acyl side, 3 side chain; linkers in the order of their positions; H or OH if unused. Non-standard residues stand in square brackets, D forms with d. Groups on a side chain read outwards from the residue. No end group written: not given here. *: point of attachment. C20 diacid = O=C(O)CCCCCCCCCCCCCCCCCCC(=O)*; C18 diacid = O=C(O)CCCCCCCCCCCCCCCCC(=O)*; γGlu = O=C(O)[C@H](CCC(=O)[*:2])N[*:1]; εLys = N[C@@H](CCCCN[*:1])C(=O)[*:2]; AEEA = NCCOCCOCC(=O)O; Aib = CC(C)(N)C(=O)O

T1: human GIP receptor (human, UniProt P48546 22-466)
T1 sequence (looked up): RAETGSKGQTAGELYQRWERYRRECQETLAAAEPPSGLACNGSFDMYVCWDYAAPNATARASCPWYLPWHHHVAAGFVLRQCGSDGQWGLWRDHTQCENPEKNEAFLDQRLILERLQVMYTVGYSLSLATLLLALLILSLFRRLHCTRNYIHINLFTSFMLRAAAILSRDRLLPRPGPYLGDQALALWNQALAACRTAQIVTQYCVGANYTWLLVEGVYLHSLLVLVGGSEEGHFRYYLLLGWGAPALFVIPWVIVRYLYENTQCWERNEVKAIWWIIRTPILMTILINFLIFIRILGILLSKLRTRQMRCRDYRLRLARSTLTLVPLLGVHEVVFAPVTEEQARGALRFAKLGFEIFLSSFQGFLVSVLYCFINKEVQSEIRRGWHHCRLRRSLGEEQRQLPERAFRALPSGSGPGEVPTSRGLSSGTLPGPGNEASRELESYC

T2: human neuropeptide Y2 (NPY2) receptor (human, UniProt P49146 1-381)
T2 sequence (looked up): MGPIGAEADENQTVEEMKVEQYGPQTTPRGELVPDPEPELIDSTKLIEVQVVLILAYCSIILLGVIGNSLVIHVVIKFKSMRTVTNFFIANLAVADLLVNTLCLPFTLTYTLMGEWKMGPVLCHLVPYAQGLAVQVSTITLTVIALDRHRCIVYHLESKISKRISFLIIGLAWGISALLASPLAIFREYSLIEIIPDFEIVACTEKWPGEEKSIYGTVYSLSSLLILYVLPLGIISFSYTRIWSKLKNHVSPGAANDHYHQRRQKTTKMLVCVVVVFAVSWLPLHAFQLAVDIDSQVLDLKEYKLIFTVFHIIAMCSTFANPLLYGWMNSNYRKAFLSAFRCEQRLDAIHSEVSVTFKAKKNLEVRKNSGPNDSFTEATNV

B1: Compound 66 (peptide)
peptide: YXEGTFTSDYSIXLEEEAQXAFVEWLIKGGPSSGASLRHYYNWLTRQRY
modifications: Aib at 2, 13, 20; K28 side chain: C20DA-gGlu-gGlu-gGlu-gGlu-gGlu-gGlu-eLys; C-terminal NH2
B2: Compound 8 (peptide)
peptide: B1 peptide with E17Q, E24Q, A35Q
modifications: Aib at 2, 13, 20; K28 side chain: C20DA-gGlu-Glu-gGlu-gGlu-gGlu-gGlu-eLys; C-terminal NH2
B3: Compound 68 (peptide)
peptide: B1 peptide with E16K, E17Q, W43R, L44X
modifications: Aib at 2, 13, 20, 44; K28 side chain: C20DA-gGlu-gGlu-gGlu-gGlu-gGlu-gGlu-eLys; C-terminal NH2
B4: Compound 62 (peptide)
peptide: B1 peptide with E16K, E17Q, S32R, S33Y, G34Y
modifications: Aib at 2, 13, 20; K28 side chain: C20DA-gGlu-gGlu-gGlu-gGlu-gGlu-gGlu-eLys; C-terminal NH2
B5: Compound 2 (peptide)
peptide: YXEGTFTSDYSIXLEKQAQXAFVEWLIKGGPSSGIELRHFLNHLTRQRY
modifications: Aib at 2, 13, 20; K28 side chain: C20DA-gGlu-gGlu-gGlu-gGlu-gGlu-gGlu-eLys; C-terminal NH2

Biological target: human GLP-1 receptor (human, UniProt P43220 24-463)
Experiment: cell-based or functional assay

In order of rising “EC50, CreLuc assay, 0.5% hP” value:
1. B2  0.04 nM
2. Y[Aib]EGTFTSDYSI[Aib]LEKQAQ[Aib]AFVQWLIK([εLys-γGlu-γGlu-γGlu-γGlu-γGlu-C18 diacid])GGPESGASLRHYYNWLTRQRY-NH2 (also: TFA salt) [Compound 60]  0.08 nM
3. B5  0.1 nM
4. B3  0.12 nM
5. Y[Aib]EGTFTSDYSI[Aib]LEEEAQ[Aib]AFVQWLIK([εLys-εLys-γGlu-γGlu-γGlu-γGlu-γGlu-C20 diacid])GGPSSGASLRHYYNWLTRQRY-NH2 (also: TFA salt) [Compound 7]  0.13 nM
6. B1  0.24 nM
7. Y[Aib]EGTFTSDYSI[Aib]LEKQAQ[Aib]EFVEWLIK([AEEA-AEEA-γGlu-γGlu-γGlu-γGlu-C18 diacid])GGPSSPASLRHYYNWLTRQRY-NH2 (also: TFA salt) [Compound 56]  0.25 nM
8. Y[Aib]EGTFTSDYSI[Aib]LEKQAQ[Aib]AFVEWLIKGGPESPASLRHYYNWLTRQRY-NH2 (not fully specified (residue 28); also: TFA salt) [Compound 64]  0.29 nM
9. Y[Aib]EGTFTSDYSI[Aib]LEKQAQ[Aib]AFVQWLIKGGPSYYASLRHYYNWLTRQRY-NH2 (not fully specified (residue 28); also: TFA salt) [Compound 59]  0.39 nM
10. B4  0.78 nM

In order of rising “EC50, CreLuc assay, 100% hP” value:
1. B2  1.05 nM
2. B5  1.39 nM
3. Y[Aib]EGTFTSDYSI[Aib]LEEEAQ[Aib]AFVQWLIK([εLys-εLys-γGlu-γGlu-γGlu-γGlu-γGlu-C20 diacid])GGPSSGASLRHYYNWLTRQRY-NH2 (also: TFA salt) [Compound 7]  1.58 nM
4. Y[Aib]EGTFTSDYSI[Aib]LEKQAQ[Aib]AFVQWLIK([εLys-γGlu-γGlu-γGlu-γGlu-γGlu-C18 diacid])GGPESGASLRHYYNWLTRQRY-NH2 (also: TFA salt) [Compound 60]  1.69 nM
5. B3  2.19 nM
6. Y[Aib]EGTFTSDYSI[Aib]LEKQAQ[Aib]AFVQWLIKGGPSYYASLRHYYNWLTRQRY-NH2 (not fully specified (residue 28); also: TFA salt) [Compound 59]  8.81 nM
7. Y[Aib]EGTFTSDYSI[Aib]LEKQAQ[Aib]EFVEWLIK([AEEA-AEEA-γGlu-γGlu-γGlu-γGlu-C18 diacid])GGPSSPASLRHYYNWLTRQRY-NH2 (also: TFA salt) [Compound 56]  8.97 nM
8. B4  9.23 nM
9. Y[Aib]EGTFTSDYSI[Aib]LEKQAQ[Aib]AFVEWLIKGGPESPASLRHYYNWLTRQRY-NH2 (not fully specified (residue 28); also: TFA salt) [Compound 64]  11.2 nM
10. B1  11.6 nM

Biological target: T1, human GIP receptor
Experiment: cell-based or functional assay

In order of falling “EC50, CreLuc assay, 0.5% hP” value:
1. B1  0.64 nM
2. Y[Aib]EGTFTSDYSI[Aib]LEKQAQ[Aib]AFVQWLIKGGPSYYASLRHYYNWLTRQRY-NH2 (not fully specified (residue 28); also: TFA salt) [Compound 59]  0.49 nM
3. B4  0.48 nM
4. B5  0.35 nM
5. Y[Aib]EGTFTSDYSI[Aib]LEKQAQ[Aib]AFVQWLIK([εLys-γGlu-γGlu-γGlu-γGlu-γGlu-C18 diacid])GGPESGASLRHYYNWLTRQRY-NH2 (also: TFA salt) [Compound 60]  0.33 nM
6. B3  0.32 nM
7. Y[Aib]EGTFTSDYSI[Aib]LEKQAQ[Aib]EFVEWLIK([AEEA-AEEA-γGlu-γGlu-γGlu-γGlu-C18 diacid])GGPSSPASLRHYYNWLTRQRY-NH2 (also: TFA salt) [Compound 56]  0.27 nM
8. Y[Aib]EGTFTSDYSI[Aib]LEEEAQ[Aib]AFVQWLIK([εLys-εLys-γGlu-γGlu-γGlu-γGlu-γGlu-C20 diacid])GGPSSGASLRHYYNWLTRQRY-NH2 (also: TFA salt) [Compound 7]  0.23 nM
9. Y[Aib]EGTFTSDYSI[Aib]LEKQAQ[Aib]AFVEWLIKGGPESPASLRHYYNWLTRQRY-NH2 (not fully specified (residue 28); also: TFA salt) [Compound 64]  0.18 nM
10. B2  0.12 nM

In order of rising “EC50, CreLuc assay, 100% hP” value:
1. Y[Aib]EGTFTSDYSI[Aib]LEKQAQ[Aib]AFVQWLIK([εLys-γGlu-γGlu-γGlu-γGlu-γGlu-C18 diacid])GGPESGASLRHYYNWLTRQRY-NH2 (also: TFA salt) [Compound 60]  0.35 nM
2. Y[Aib]EGTFTSDYSI[Aib]LEEEAQ[Aib]AFVQWLIK([εLys-εLys-γGlu-γGlu-γGlu-γGlu-γGlu-C20 diacid])GGPSSGASLRHYYNWLTRQRY-NH2 (also: TFA salt) [Compound 7]  0.63 nM
3. Y[Aib]EGTFTSDYSI[Aib]LEKQAQ[Aib]EFVEWLIK([AEEA-AEEA-γGlu-γGlu-γGlu-γGlu-C18 diacid])GGPSSPASLRHYYNWLTRQRY-NH2 (also: TFA salt) [Compound 56]  1.02 nM
4. B5  1.56 nM
5. B2  1.72 nM
6. B3  2.05 nM
7. Y[Aib]EGTFTSDYSI[Aib]LEKQAQ[Aib]AFVEWLIKGGPESPASLRHYYNWLTRQRY-NH2 (not fully specified (residue 28); also: TFA salt) [Compound 64]  2.37 nM
8. B1  3.06 nM
9. B4  5.35 nM
10. Y[Aib]EGTFTSDYSI[Aib]LEKQAQ[Aib]AFVQWLIKGGPSYYASLRHYYNWLTRQRY-NH2 (not fully specified (residue 28); also: TFA salt) [Compound 59]  5.75 nM

Biological target: T2, human neuropeptide Y2 (NPY2) receptor
Experiment: cell-based or functional assay

First: B1
Second: B2
The “EC50, CreLuc assay, 0.5% hP” value of the first is 1.6-fold higher: 18.8 nM for the first, 11.6 nM for the second.

First: B3
Second: B4
The “EC50, CreLuc assay, 0.5% hP” value of the first is 4-fold higher: 53.9 nM for the first, 13.6 nM for the second.

Going from Y[Aib]EGTFTSDYSI[Aib]LEKQAQ[Aib]AFVQWLIKGGPSYYASLRHYYNWLTRQRY-NH2 (not fully specified (residue 28); also: TFA salt) [Compound 59] to Y[Aib]EGTFTSDYSI[Aib]LEKQAQ[Aib]AFVEWLIKGGPESPASLRHYYNWLTRQRY-NH2 (not fully specified (residue 28); also: TFA salt) [Compound 64], the “EC50, CreLuc assay, 0.5% hP” value rises from 10.8 nM to 17 nM (1.6-fold).

Going from Y[Aib]EGTFTSDYSI[Aib]LEKQAQ[Aib]EFVEWLIK([AEEA-AEEA-γGlu-γGlu-γGlu-γGlu-C18 diacid])GGPSSPASLRHYYNWLTRQRY-NH2 (also: TFA salt) [Compound 56] to Y[Aib]EGTFTSDYSI[Aib]LEKQAQ[Aib]AFVQWLIK([εLys-γGlu-γGlu-γGlu-γGlu-γGlu-C18 diacid])GGPESGASLRHYYNWLTRQRY-NH2 (also: TFA salt) [Compound 60], the “EC50, CreLuc assay, 0.5% hP” value falls from 27.2 nM to 7.43 nM (3.7-fold).

Compared with B5, Y[Aib]EGTFTSDYSI[Aib]LEEEAQ[Aib]AFVQWLIK([εLys-εLys-γGlu-γGlu-γGlu-γGlu-γGlu-C20 diacid])GGPSSGASLRHYYNWLTRQRY-NH2 (also: TFA salt) [Compound 7] is lower in “EC50, CreLuc assay, 0.5% hP” value: over 100 nM for the first, 16.9 nM for the second.

In order of falling “EC50, CreLuc assay, 100% hP” value:
1. B5  564 nM
2. B3  139 nM
3. Y[Aib]EGTFTSDYSI[Aib]LEKQAQ[Aib]AFVEWLIKGGPESPASLRHYYNWLTRQRY-NH2 (not fully specified (residue 28); also: TFA salt) [Compound 64]  95.3 nM
4. B1  85.6 nM
5. Y[Aib]EGTFTSDYSI[Aib]LEKQAQ[Aib]EFVEWLIK([AEEA-AEEA-γGlu-γGlu-γGlu-γGlu-C18 diacid])GGPSSPASLRHYYNWLTRQRY-NH2 (also: TFA salt) [Compound 56]  48.8 nM
6. B2  43 nM
7. B4  40.5 nM
8. Y[Aib]EGTFTSDYSI[Aib]LEEEAQ[Aib]AFVQWLIK([εLys-εLys-γGlu-γGlu-γGlu-γGlu-γGlu-C20 diacid])GGPSSGASLRHYYNWLTRQRY-NH2 (also: TFA salt) [Compound 7]  36.7 nM
9. Y[Aib]EGTFTSDYSI[Aib]LEKQAQ[Aib]AFVQWLIKGGPSYYASLRHYYNWLTRQRY-NH2 (not fully specified (residue 28); also: TFA salt) [Compound 59]  29.9 nM
10. Y[Aib]EGTFTSDYSI[Aib]LEKQAQ[Aib]AFVQWLIK([εLys-γGlu-γGlu-γGlu-γGlu-γGlu-C18 diacid])GGPESGASLRHYYNWLTRQRY-NH2 (also: TFA salt) [Compound 60]  23.1 nM
